Biological target: the molecule itself
Assay: cryo-EM structure; L-BC particles purified from yeast, vitrified in 20 mM Tris-HCl pH 7.5, 50 mM KCl, 10 mM MgCl2; empty particle 2.9 Å and virion 3.7 Å (icosahedral symmetry), open particle 10 Å (C5) and 12 Å (C1)

B1: L-BC virus capsid protein (Saccharomyces cerevisiae virus L-BCLa) (natural protein)
chain: MSSLLNSLLPEYFKPKTNLNINSSRVQYGFNARIDMQYEDDSGTRKGSRPNAFMSNTVAFIGNYEGIIVDDIPILDGLRADIFDTHGDLDMGLVEDALSKSTMIRRNVPTYTAYASELLYKRNLTSLFYNMLRLYYIKKWGSIKYEKDAIFYDNGHACLLNRQLFPKSRDASLESSLSLPEAEIAMLDPGLEFPEEDVPAILWHGRVSSRATCILGQACSEFAPLAPFSIAHYSPQLTRKLFVNAPAGIEPSSGRYTHEDVKDAITILVSANQAYTDFEAAYLMLAQTLVSPVPRTAEASAWFINAGMVNMPTLSCANGYYPALTNVNPYHRLDTWKDTLNHWVAYPDMLFYHSVAMIESCYVELGNVARVSDSDAINKYTFTELSVQGRPVMNRGIIVDLTLVAMRTGREISLPYPVSCGLTRTDALLQGTEIHVPVVVKDIDMPQYYNAIDKDVIEGQETVIKVKQLPPAMYPIYTYGINTTEFYSDHFEDQVQVEMAPIDNGKAVFNDARKFSKFMSIMRMMGNDVTATDLVTGRKVSNWADNSSGRFLYTDVKYEGQTAFLVDMDTVKARDHCWVSIVDPNGTMNLSYKMTNFRAAMFSRNKPLYMTGGSVRTIATGNYRDAAERLRAMDETLRLKPFKITEKLDFRVAAYAIPSLSGSNMPSLHHQEQLQISEVDAEPINPIGEDELPPDIE
notes: Capsid protein of Saccharomyces cerevisiae virus L-BCLa (L-BC), as found in virus particles from yeast; genome NC_001641.1; the model has 1316 resolved residues for the two copies (A and B) of the icosahedral asymmetric unit; The same chain takes two conformations (A and B) in the capsid; no density for it was resolved; also called A subunit; B subunit
- stoichiometry N: 120

From PMC9391438, “Structures of L-BC virus and its open particle provide insight into Totivirus capsid assembly” (Communications Biology, 2022)
